{
  "source": "patent CN112125972A",
  "about": "(SINOCELLTECH LTD, dated 2020)",
  "experiment_in_all_cases": "double-antibody sandwich ELISA, R001 as capture and HRP-R001 as detection, mixture of HPV types",
  "key": {"[1]": {"molecular_target": "T1, HPV31 VLP (Human papillomavirus type 31, UniProt P17388 1-504)", "T1 construct": "also called HPV31完整VLP蛋白", "T1 sequence": "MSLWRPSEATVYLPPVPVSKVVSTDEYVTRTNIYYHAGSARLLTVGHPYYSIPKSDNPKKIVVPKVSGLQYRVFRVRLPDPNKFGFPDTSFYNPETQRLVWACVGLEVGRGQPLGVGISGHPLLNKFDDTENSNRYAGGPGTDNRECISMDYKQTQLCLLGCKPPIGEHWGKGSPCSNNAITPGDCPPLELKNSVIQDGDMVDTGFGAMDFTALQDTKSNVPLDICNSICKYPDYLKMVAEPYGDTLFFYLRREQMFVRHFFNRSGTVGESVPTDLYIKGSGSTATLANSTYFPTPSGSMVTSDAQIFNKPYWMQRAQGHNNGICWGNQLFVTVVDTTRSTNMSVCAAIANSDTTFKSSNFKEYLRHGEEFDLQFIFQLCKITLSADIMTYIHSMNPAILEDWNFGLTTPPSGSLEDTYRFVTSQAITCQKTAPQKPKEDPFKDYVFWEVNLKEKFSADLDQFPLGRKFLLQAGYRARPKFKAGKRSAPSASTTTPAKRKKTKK"}, "[2]": {"molecular_target": "T2, HPV51 VLP (Human papillomavirus type 51, UniProt P26536 1-504)", "T2 construct": "also called HPV51完整VLP蛋白", "T2 sequence": "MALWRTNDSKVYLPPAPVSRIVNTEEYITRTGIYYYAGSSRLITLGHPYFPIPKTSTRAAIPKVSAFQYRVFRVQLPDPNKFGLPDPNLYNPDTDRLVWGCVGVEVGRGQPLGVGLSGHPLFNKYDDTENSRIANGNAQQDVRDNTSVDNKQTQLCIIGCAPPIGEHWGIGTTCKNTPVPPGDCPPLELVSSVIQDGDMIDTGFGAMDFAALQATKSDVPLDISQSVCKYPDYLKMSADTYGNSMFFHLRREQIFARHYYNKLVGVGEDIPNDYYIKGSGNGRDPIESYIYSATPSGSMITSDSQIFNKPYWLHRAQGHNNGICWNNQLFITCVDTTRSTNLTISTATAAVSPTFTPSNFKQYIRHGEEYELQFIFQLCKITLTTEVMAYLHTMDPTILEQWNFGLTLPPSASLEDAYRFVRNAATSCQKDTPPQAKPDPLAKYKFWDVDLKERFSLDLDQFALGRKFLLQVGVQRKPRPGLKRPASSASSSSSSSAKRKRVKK"}, "[3]": {"molecular_target": "T3, HPV45 VLP (Human papillomavirus type 45, UniProt P36741 27-539)", "T3 construct": "also called HPV45完整VLP蛋白", "T3 sequence": "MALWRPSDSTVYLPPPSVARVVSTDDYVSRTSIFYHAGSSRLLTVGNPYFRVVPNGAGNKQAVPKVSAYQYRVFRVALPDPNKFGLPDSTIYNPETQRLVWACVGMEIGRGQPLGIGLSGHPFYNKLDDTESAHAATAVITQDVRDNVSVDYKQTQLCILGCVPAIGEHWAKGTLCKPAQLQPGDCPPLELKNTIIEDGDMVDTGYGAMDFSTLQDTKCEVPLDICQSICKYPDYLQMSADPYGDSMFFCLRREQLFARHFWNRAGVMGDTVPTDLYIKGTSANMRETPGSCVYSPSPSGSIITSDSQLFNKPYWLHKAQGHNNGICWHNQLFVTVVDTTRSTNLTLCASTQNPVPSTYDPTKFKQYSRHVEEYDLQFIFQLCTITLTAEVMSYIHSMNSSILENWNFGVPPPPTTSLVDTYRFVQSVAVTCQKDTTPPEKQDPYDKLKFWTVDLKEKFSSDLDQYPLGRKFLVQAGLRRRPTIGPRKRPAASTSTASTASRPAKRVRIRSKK"}, "[4]": {"molecular_target": "T4, HPV39 VLP (Human papillomavirus type 39, UniProt P24838 1-505)", "T4 construct": "also called HPV39完整VLP蛋白", "T4 sequence": "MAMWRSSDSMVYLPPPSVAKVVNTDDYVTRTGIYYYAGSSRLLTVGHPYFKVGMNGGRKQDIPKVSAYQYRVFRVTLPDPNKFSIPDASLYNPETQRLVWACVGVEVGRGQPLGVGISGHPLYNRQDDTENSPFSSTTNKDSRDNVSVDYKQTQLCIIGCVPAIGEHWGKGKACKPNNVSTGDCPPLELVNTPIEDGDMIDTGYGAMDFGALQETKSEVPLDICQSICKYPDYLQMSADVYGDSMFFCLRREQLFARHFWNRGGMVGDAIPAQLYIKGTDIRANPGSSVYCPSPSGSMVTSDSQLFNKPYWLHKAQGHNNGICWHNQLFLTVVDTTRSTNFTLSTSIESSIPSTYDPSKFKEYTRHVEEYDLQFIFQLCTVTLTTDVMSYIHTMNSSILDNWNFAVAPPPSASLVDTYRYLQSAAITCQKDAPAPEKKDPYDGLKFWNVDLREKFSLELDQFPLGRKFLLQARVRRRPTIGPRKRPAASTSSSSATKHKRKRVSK"}, "[5]": {"molecular_target": "T5, HPV11 VLP (Human papillomavirus type 11, UniProt P04012 1-501)", "T5 construct": "also called HPV11完整VLP蛋白", "T5 sequence": "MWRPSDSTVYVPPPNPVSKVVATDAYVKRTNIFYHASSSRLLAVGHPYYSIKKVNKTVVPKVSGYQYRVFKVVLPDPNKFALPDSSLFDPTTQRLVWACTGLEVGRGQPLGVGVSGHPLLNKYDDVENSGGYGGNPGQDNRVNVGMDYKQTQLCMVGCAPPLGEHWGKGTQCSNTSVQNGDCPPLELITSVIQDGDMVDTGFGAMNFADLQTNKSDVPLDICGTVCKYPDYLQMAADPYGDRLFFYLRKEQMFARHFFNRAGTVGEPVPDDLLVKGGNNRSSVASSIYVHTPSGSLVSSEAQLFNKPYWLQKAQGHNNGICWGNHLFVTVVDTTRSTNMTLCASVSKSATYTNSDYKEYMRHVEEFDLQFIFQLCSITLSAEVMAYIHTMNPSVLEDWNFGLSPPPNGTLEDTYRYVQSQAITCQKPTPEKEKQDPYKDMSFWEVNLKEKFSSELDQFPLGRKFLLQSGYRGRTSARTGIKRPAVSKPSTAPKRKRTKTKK"}},
  "data": [
    {"binder": "HPV 16 R001 (antibody, V domains shown, An HRP-labelled form served as detection antibody in the sandwich ELISA; also called HPV16.001; 单克隆抗体HPV 16 R001) VH: QSVKESEGRLVTPGTPLTLTCTASGFTMSRYHMTWVRQAPGKGLEWIGIIYARNSDTYYANWAKGRFTISKTSTTVDLKITSPTIEDTATYFCARVDSDSSGAFDRLDLWGQGTLVTVSS VL: DPMLTQTAASVEVAVGGTVTIKCQASQSIGGYLSWYQQKPGQRPKLLIYRASTLASGVPSRFKGSGSGTEYTLTFSGVECADAAAYYCQQGYTSSDINNAFGGGTEVVVK", "values": [
      {"measurement": "binding result", "setting": "[1]", "result": "no binding (tested: 50ng/mL，25ng/mL，12.5ng/mL)"},
      {"measurement": "binding result", "setting": "[2]", "result": "no binding (tested: 50ng/mL，25ng/mL，12.5ng/mL)"},
      {"measurement": "binding result", "setting": "[3]", "result": "no binding (tested: 50ng/mL，25ng/mL，12.5ng/mL)"},
      {"measurement": "binding result", "setting": "[4]", "result": "no binding (tested: 50ng/mL，25ng/mL，12.5ng/mL)"},
      {"measurement": "binding result", "setting": "[5]", "result": "no binding (tested: 50ng/mL，25ng/mL，12.5ng/mL)"}
    ]}
  ]
}
